Data: the supplement of paper PMC9732359
± gives the uncertainty stated by the source.

Assay: protein stability index of a GFP-peptide fusion (yeast GPS) (PSI 1-4); higher = more stable; sorted into four equal gates, so the index is relative within each strain
Conditions: pdr5∆
How it was run: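 Tiled yeast protein peptides of 17 residues were each joined downstream of GFP, on plasmids that also express Cherry. The pooled library was maintained in yeast, and mid-log cultures in leucine-free medium were sorted into four equal gates on the GFP/Cherry ratio. Plasmids from every gate were amplified by PCR and sequenced on Illumina, with barcodes linking reads to strains. The protein stability index of a peptide is its gate-number-weighted read frequency summed over the gates.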
In the case of VALPPGSNYNPYFPGGS [CYT1], the protein stability index is reported as 2.81 ± 0.064.
VCDLALRFGEGASGEER [PUP2] gave a protein stability index of 3.4 ± 0.2.
For VCKKADVDLHKRAGELT [RPS18A], the protein stability index was 3.31 ± 0.12.
With VDASPNDVTRRTVKNIL [CSL4] the protein stability index was 3.18 ± 0.085.

Same assay, conditions: san1∆
TGLLIARRTLQKLGLDE [RPL5] showed a protein stability index of 3.39 ± 0.094.
For TGPFKVNGVPLRRVNAR [RPL6B], the protein stability index was 2.56 ± 0.095.
For TGWNAKTYGISDDIISQ [FAS2], the protein stability index was 1.72 ± 0.24.
For TGYPDEPPAGVALPPGS [CYT1], the protein stability index was 2.65 ± 0.11.
With THEQWSNIQRNVLFLRL [SRP72] the protein stability index was 1.96 ± 0.077.
With THHTDIIPIVDYAQLDH [ARP9] the protein stability index was 2.66 ± 0.039.
In the case of THVANFMNDAAADVSAV [YML103C/NUP188], the protein stability index is reported as 2.44 ± 0.081.
With TIEDIAVAITRASKLKI [RPO31] the protein stability index was 2.1 ± 0.12.
With TINKAVQVKVLGKYEFS [ESC2] the protein stability index was 1.89 ± 0.18.
With TIPILESDSKATLQSNE [DSN1] the protein stability index was 2.36 ± 0.16.
TIRQIILPDSLNLDSLL [SMD1] gave a protein stability index of 3.11 ± 0.055.
Work on TIRTRKVISNPLLARKQ [RPS24A] yielded a protein stability index of 2.35 ± 0.13.
With TIVTGGGSGNGDDVVND [RPP1] the protein stability index was 3.22 ± 0.12.
With TIYNNIREGQNQKIPDN [SIR3] the protein stability index was 2.98 ± 0.056.
Work on TKANDKNESATINEMMK [FAS2] yielded a protein stability index of 3.03 ± 0.062.
With TKEELESDGRMFIEEPT [SRP54] the protein stability index was 2.96 ± 0.099.
For TKGDSTPVQPDLSVTPQ [YAR002W/NUP60], the protein stability index was 2.984 ± 0.028.
TKGDTSKATGAPSANQG [RTT102] gave a protein stability index of 3.29 ± 0.045.
Sequence TKGENYQLVKTLGEQLI [FAS2] has a protein stability index of 2.6 ± 0.13.
For TKIIMATNRPDTLDPAL [RPT4], the protein stability index was 2.9 ± 0.054.
With TKLIISGQLNFEIDGDV [PCI8] the protein stability index was 1.87 ± 0.11.
For TKSGATTSEKQEVTNEA [GAL11], the protein stability index was 2.9 ± 0.28.
Work on TKWGLINYQVDSKLLPK [SWI3] yielded a protein stability index of 1.92 ± 0.15.
In the case of TLELSAQFRVPRYHSKN [SWP82], the protein stability index is reported as 2.49 ± 0.065.
TLGVVGKSEKLSLLLVE [SKI6] gave a protein stability index of 3.11 ± 0.035.
TLHLVLRLRGGGKKRKK [RPS31] gave a protein stability index of 2.83 ± 0.3.
Sequence TLSLPDSQDYILSINAI [SMC1] has a protein stability index of 2.9 ± 0.04.
Work on TLTASPDGTLIASAGKD [ASC1] yielded a protein stability index of 3.12 ± 0.065.
For TLVHTRVKIANTSAATV [SSN2], the protein stability index was 2.32 ± 0.044.
For TLVNKSTGLKSASDALK [RPS1A], the protein stability index was 3.42 ± 0.092.
With TLYIGNTANGRPPVKAI [ECM29] the protein stability index was 1.99 ± 0.11.
TMADAVRELGILCIFEG [SEC65] showed a protein stability index of 2.62 ± 0.063.
Sequence TMRRQKLTILQEGIEAI [RET1] has a protein stability index of 2.8 ± 0.078.
With TMTISHLLLGFQVSNVI [YJL039C/NUP192] the protein stability index was 1.75 ± 0.06.
In the case of TNDDSIKNLTVQLSPSN [RGR1], the protein stability index is reported as 2.56 ± 0.056.
Sequence TNEFVGSPSLTSPQYIP [NUT1] has a protein stability index of 3.06 ± 0.035.
TNGKPDMAILERYYELA [ARP7] showed a protein stability index of 3.01 ± 0.075.
In the case of TNLISKISLLRPSFQNN [SWP82], the protein stability index is reported as 2.53 ± 0.071.
Work on TNNEQLQQELATTQDQV [NUT2] yielded a protein stability index of 3.11 ± 0.039.
TNSSILLGKILPREEHD [RRP6] gave a protein stability index of 1.61 ± 0.25.
Sequence TNSVRLFEVNPSQTLFS [SRP21] has a protein stability index of 2.2 ± 0.073.
TNVLNFIKLQKIDIIEL [FAS1] gave a protein stability index of 1.91 ± 0.075.
Work on TNVPKAKKRKTLILIQN [SIR3] yielded a protein stability index of 1.33 ± 0.22.
TNVRLYSLLLASKGIDR [ECM29] gave a protein stability index of 3.48 ± 0.088.
With TNYYLTTARNDLGVVFA [CSL4] the protein stability index was 2.51 ± 0.075.
Work on TPLFPIDRNSTILYLNV [IRR1] yielded a protein stability index of 2.93 ± 0.092.
In the case of TPQQLQMIQQRHQQLLR [SNF5], the protein stability index is reported as 2.04 ± 0.052.
TPSTSSNGEFIPHIFYS [CSE2] showed a protein stability index of 2.62 ± 0.044.
In the case of TPYNIDRLTQLVRNGPN [RPO21], the protein stability index is reported as 3.17 ± 0.076.
In the case of TQEEVELPLEDFKAKYC [RPB5], the protein stability index is reported as 3.58 ± 0.11.
For TQEIRPVNTGVLHVSAK [RRP40], the protein stability index was 2.74 ± 0.081.
TQQPGTNSHYNNTNTDN [SNF2] showed a protein stability index of 3.21 ± 0.036.
TQTYMQMIELNRQICLV [GRR1] showed a protein stability index of 1.35 ± 0.19.
With TRAMEYLKFRELPAGQN [RPB2] the protein stability index was 3.13 ± 0.071.
TRELAEEGYSGVEVRVT [RPS3] showed a protein stability index of 2.67 ± 0.053.
With TRFEVELEFIQSLANIQ [SOH1] the protein stability index was 2.14 ± 0.1.
With TRIAGVVYHPSNNELVR [RPS8A] the protein stability index was 2.56 ± 0.02.
With TRIQYVDFACCTNLTNR [GRR1] the protein stability index was 2.58 ± 0.1.
TRKAVRPQKLRASLVPG [RPL6B] gave a protein stability index of 2.9 ± 0.14.
TRNEQTTIQTEKVRPTP [MCD1] gave a protein stability index of 2.88 ± 0.036.
TRNITDYSINSRYEPKV [PRE7] gave a protein stability index of 2.99 ± 0.046.
With TRSHEYGRKSFRNNKND [REC8] the protein stability index was 3.29 ± 0.051.
With TRSLKYGKLRNGMFCQV [RRP4] the protein stability index was 1.09 ± 0.13.
Sequence TRSQFCLNTQRGDSTET [RRI1] has a protein stability index of 3.22 ± 0.063.
For TRVEGSGGGDSEVQRTM [RPT6], the protein stability index was 2.98 ± 0.087.
Sequence TRYELYIKNILEAPVKS [YLR335W/NUP2] has a protein stability index of 1.66 ± 0.087.
Sequence TRYMFQRDFRKHGAVHL [RPL21A] has a protein stability index of 2.33 ± 0.084.
In the case of TSASNTSMNGVHNTVAA [SNF5], the protein stability index is reported as 2.9 ± 0.051.
Work on TSFGQPQSAPNQMGMGT [YOR098C/NUP1] yielded a protein stability index of 2.9 ± 0.15.
With TSKTVSNQFKRSLATAV [COR1] the protein stability index was 2.34 ± 0.092.
TSTKPSFSFGAPESMKS [YOR098C/NUP1] gave a protein stability index of 3.15 ± 0.043.
TSTVNRLNTVTRVHQLM [MCD1] gave a protein stability index of 2.21 ± 0.2.
Work on TSVENEGPVANLKDYEL [REC8] yielded a protein stability index of 3.03 ± 0.13.
TSVQEKELMLQSKKLIE [YIL149C/MLP2] showed a protein stability index of 2.84 ± 0.084.
Sequence TTDNNNSGNSNSNSNQQ [RPT1] has a protein stability index of 2.59 ± 0.23.
Sequence TTILSFSSPAALMKTLI [NUT1] has a protein stability index of 2.09 ± 0.1.
Sequence TTPEKPEETPLEELAET [FAS2] has a protein stability index of 3.28 ± 0.051.
For TTQIDLFRIFSMSEEFK [BRR2], the protein stability index was 2.49 ± 0.23.
TTSVDVMLKGIVTALLE [SRP54] gave a protein stability index of 1.18 ± 0.1.
For TTVFFSRQKSGLFDSFT [YML031W/NDC1], the protein stability index was 1.54 ± 0.11.
In the case of TTVQVAEEAIVNAMRVL [PRE4], the protein stability index is reported as 1.88 ± 0.27.
With TVAVLPPNWKYESATAS [RPS13] the protein stability index was 2.07 ± 0.055.
TVEPVYQMHIKTSKDIA [FAS1] showed a protein stability index of 1.31 ± 0.081.
TVINEQQREAVRQLYKG [RPL35A] gave a protein stability index of 3.13 ± 0.12.
With TVKRGAAGIWTCSCCKK [RPL43A] the protein stability index was 1.74 ± 0.11.
TVLETLLSDVNQNQRNV [SMC3] showed a protein stability index of 3.01 ± 0.085.
In the case of TVQSERAFQKQPHIFNN [RPS11A], the protein stability index is reported as 2.53 ± 0.045.
Sequence TVSRAYGGSRCANCVKE [RPL34A] has a protein stability index of 2.43 ± 0.1.
With TVWSANFEYDLSEYDAI [YOR098C/NUP1] the protein stability index was 2.98 ± 0.27.
TVYISSIALLKMLKHGR [RPN11] gave a protein stability index of 2.65 ± 0.054.
Work on TWRTQLAASEIGISIVG [ECM29] yielded a protein stability index of 1.68 ± 0.071.
TYDENDDFFKELAKEAK [ESC2] gave a protein stability index of 2.65 ± 0.073.
With TYKYPSLKGVDPKFRRN [RPL29] the protein stability index was 2.97 ± 0.12.
With TYSFIDNDRFNVVGKLI [YML103C/NUP188] the protein stability index was 2.07 ± 0.072.
VAALALLFAINSYQPSP [SMC1] showed a protein stability index of 1.89 ± 0.11.
In the case of VAFLDNDLGKFIPNKQL [RPN7], the protein stability index is reported as 2.83 ± 0.26.
Sequence VALPPGSNYNPYFPGGS [CYT1] has a protein stability index of 2.65 ± 0.067.
VCKKADVDLHKRAGELT [RPS18A] showed a protein stability index of 3.39 ± 0.2.
VDASPNDVTRRTVKNIL [CSL4] showed a protein stability index of 3.1 ± 0.078.

Same assay, conditions: ubr1∆
TGLLIARRTLQKLGLDE [RPL5] showed a protein stability index of 3.18 ± 0.16.
